The labels stand for the following.
B1: E. coli FtsN cytoplasmic tail peptide, residues 1-32 (EcFtsN^1-32) [E. coli] / E. coli FtsA (EcFtsA), full length [E. coli] (parent complex)
chain 1: MAQRDYVRRSQPAPSRRKKSTSRKKQRNLPAV
chain 2: MIKATDRKLVVGLEIGTAKVAALVGEVLPDGMVNIIGVGSCPSRGMDKGGVNDLESVVKCVQRAIDQAELMADCQISSVYLALSGKHISCQNEIGMVPISEEEVTQEDVENVVHTAKSVRVRDEHRVLHVIPQEYAIDYQEGIKNPVGLSGVRMQAKVHLITCHNDMAKNIVKAVERCGLKVDQLIFAGLASSYSVLTEDERELGVCVVDIGGGTMDIAVYTGGALRHTKVIPYAGNVVTSDIAYAFGTPPSDAEAIKVRHGCALGSIVGKDESVEVPSVGGRPPRSLQRQTLAEVIEPRYTELLNLVNEEILQLQEKLRQQGVKHHLAAGIVLTGGAAQIEGLAACAQRVFHTQVRIGAPLNITGLTDYAQEPYYSTAVGLLHYGKESHLNGEAEVEKRVTASVGSWIKRLNSWLRKEF

This experiment covers variants of B1. Nature of the experiment: SPR; FtsA immobilised on CM5 chip via amide coupling; peptide 1:2 dilution series from 20 μM; maximum response fixed during fitting (asterisk). (Surface plasmon resonance follows binding to a sensor surface in real time, without labels.)
As for chain 1 MAQRDYVRRSQPAPSRRKKSTSASAQRNLPAV [chain 1 R23A, chain 1 K24S, chain 1 K25A], the Kd is around 80.6 µM.
For chain 1 MAQRDYVRRSQPAPSAASASTSRKKQRNLPAV [chain 1 R16A, chain 1 R17A, chain 1 K18S, chain 1 K19A] the value was around 166 µM.

As usually defined, the Kd is the concentration at which binding is half-saturated.

These data come from article PMC7613929 (Nature microbiology, 2022).
